Laboratory results taken from US20230303623A1, “PEPTIDES AND METHODS OF USE” (REALTA LIFE SCIENCES, INC., priority 2020, published 2023).
Entries after “also recorded” stand apart in the source; their conditions may differ. Bridges are numbered along the chain shown (N, C = ends). Where no end group is shown, it is not given here. [ ]: non-standard residue; d: D form. S5 = C=CCCC[C@](C)(N)C(=O)O; Sar = CNCC(=O)O

What was measured:
MPO = biological target: T1, MPO (Homo sapiens, UniProt P05164); assay: MPO activity assay; format: biochemical; conditions: compared to parent peptide
T1 construct: purchased Lee BioSolutions (Maryland Heights, MO)
Method: The MPO activity assay was performed as previously described. Briefly, peptides were diluted to 12 mg/ml and serially titrated in a 96 well plate at a volume of 0.02 ml. MPO was diluted to 20 μg/ml and 0.02 ml was added to the titrated peptides. TMB (3,30,5,50-tetramethylbenzidine) (0.1 ml) was added to each well for 2 minutes, followed by 0.1 ml of 2.5 N H2SO4 for another 2 minutes, and then read on a 96 well plate reader (BioTek) at 450 nm.
To ascertain the inhibition of MPO activity by the various peptides, a range of concentrations of the stapled peptides and D-amino acid variants were tested (FIG. 3A-3B) and half-maximal activity levels were calculated from the dose-response curves (FIG. 6A-6C, respectively).

C1q = biological target: T2, C1q (Homo sapiens, UniProt P02745+P02746+P02747); assay: C1q binding ELISA-type assay; conditions: compared to parent peptide
T2 construct: purchased Complement Technology (Tyler, TX)
Method: The C1q binding assay was performed as previously described. Briefly, an Immunlon-2 HB ELISA plate was coated with 1 μg/ml C1q in bicarbonate buffer overnight at 4° C. The plates were washed with PBS-T (phosphate buffered saline+0.1% Tween) and then blocked with 1% gelatin/PBS for 2 hours at room temperature. After washing, the plates were incubated with the peptides starting at 2.5 mg/ml and then serially diluted in 1% gelatin/PBS for 1 hour at room temperature followed by washing. Plates were then probed with rabbit antibody raised against the lead peptide […] (SEQ ID NO: 2) that lacked PEGylation at 1:1000 in 1% gelatin/PBS for 1 hour at room temperature followed by a goat anti-rabbit HRP (Sigma Aldrich, St Louis, MO) at 1:1,000 in 1% gelatin/PBS for 1 hour at room temperature with a washing step in between. After addition of TMB substrate solution to the wells, the reaction was stopped using 1N H2SO4, and the plate read on a BioTek Synergy HT plate reader at 450 nm.
The astrovirus capsid protein and the PIC1 molecules derived from it inhibit classical complement pathway activation by binding to the pattern recognition molecule C1q. The inventors next tested peptide variant binding to C1q in an ELISA-type assay in which C1q is used as the capture substrate and bound peptide detected with a rabbit polyclonal antibody against the peptide portion of PA-dPEG24 ([…]-d24; SEQ ID NO: 3). Binding curves were derived for the stapled and D-amino acid peptides based on the PA-I8Sar and PA-C9Sar (FIG. 5A-5C) backbone, from which half-maximal binding concentrations were calculated (FIGS. 2A and B, respectively). […] For the peptides based on the PA-C9Sar backbone, C1q was bound to a greater degree than the parent peptide (FIG. 2B).

PD-1 binding to PD-L1 = biological target: T3, PD-1 binding to PD-L1 (Homo sapiens, UniProt Q9NZQ7); assay: PD-1:PD-L1 inhibitor screening ELISA; conditions: FIG. 8
T3 construct: purchased
Method: PIC1 peptides were allowed to bind to immobilized PD-L1 on the surface of the plate. Biotinylated PD-1 was then added and bound PD-1 detected by streptavidin-HRP reagent followed by TMB as the substrate for the colorimetric assay.
This inhibitor screening ELISA pair was designed to facilitate the identification and characterization of new PD-1 pathway inhibitors. In this assay, biotinylated human PD-1 was bound to immobilized human PD-L1 and a colorimetric sandwich ELISA platform was used. Plates were coated with human PD-L1 followed by incubation with various PIC1 peptides. Human PD-1-Biotin was then allowed to bind the coated human PD-L1 followed by addition of streptavidin-HRP. TMB was then added as the colorimetric HRP substrate and the wells of the plate analyzed in a plate reader at an absorbance of 450 nm.
The immune checkpoint pathway is an area of significant interest in cancer research. PD-1 is one of the best characterized checkpoint proteins. The binding between PD-1 and its ligand PD-L1 suppresses T-cell activation and allows cancer cells to escape from body's immune surveillance. Therefore, the pharmaceutical inhibition of PD-1 or its ligand has been considered a promising strategy by many cancer researchers. To ascertain if these PIC1 derivatives could inhibit PD-1 interaction with PD-L1, a commercial ELISA kit was utilized. […]

[1] = Total Antioxidant Capacity (TAC) assay; conditions: highest peptide concentration 1.5 mM; compared to parent peptide
Method: As previously reported, the TAC (Total Antioxidant Capacity) Assay (Cell Biolabs, Inc, San Diego, CA) was used to measure the antioxidant capacity of the PIC1 variants based on the reduction of copper (II) to copper (I). The kit protocol was performed per the manufacturer's recommendations.
The antioxidant properties for the PIC1 variants were evaluated in a Total Antioxidant Capacity (TAC) assay, as previously reported. Total antioxidant activity over a range of peptide concentrations were determined for the stapled and the D-amino acid peptides based on the PA-I8Sar and PA-C9Sar backbones (FIG. 4A-4B), with the activity of the highest peptide concentration reported (1.5 mM) (FIG. 5A-5C).

[2] = system: antibody-initiated complement activation (lysis of AB human red blood cells by type O serum); assay: ABO incompatibility hemolytic complement assay (CH50-type); format: cell-based; conditions: peptides 0.8 mg/ml (~0.5 mM); compared to parent peptide
Method: FIG. 1A-1B show PIC1 peptides' inhibition of complement activation in an ABO incompatibility assay. […] Inhibition of ABO incompatibility hemolysis in a CH50-type assay. Peptides are at a final concentration of 0.5 mM. Values are represented as a percent of the positive control, which consists of human 0 sera and AB red blood cells in GVBS^++ buffer. Data are the means of n=3 independent experiments±SEM.
For hemolytic complement assays, human red blood cells (RBCs) from type AB donors were purified, washed, and standardized to 1.0×10^9 cells/ml, as previously described. Human sera from type 0 donors at a 15% final concentration was combined with 0.5 mM of the peptides and the volume was brought up to 0.2 ml with GVBS^++ and 5.0×10^7 RBCs. The samples were incubated for 1 hour at 37° C. and then spun at 3,000 rpm for 5 minutes and the supernatant was collected and read at 412 nm. Values are represented as a percent of the positive control, which consists of human 0 sera and AB red blood cells in GVBS^++ buffer.
To assess the extent to which the peptide variants inhibit antibody-initiated complement activation, an ABO incompatibility ex vivo assay was utilized in which purified erythrocytes from a ‘type AB+’ donor are incubated with sera from a ‘type 0’ subject containing anti-A and anti-B antibodies. Peptides were tested at a concentration of 0.8 mg/ml (˜0.5 mM).

[3] = without PEGylation; as described in U.S. Pat. No. 10,005,818; cited from earlier work
CTLA-4 = biological target: T4, CTLA-4 (Homo sapiens, UniProt P16410); assay: CTLA-4 Blockade Bioassay (Promega); format: cell-based; design: host or cells: Jurkat T cells (CTLA-4 effector cells) co-cultured with aAPC/Raji cells; conditions: increasing concentrations; listed as RLS-0154
T4 sequence (P16410 36-223): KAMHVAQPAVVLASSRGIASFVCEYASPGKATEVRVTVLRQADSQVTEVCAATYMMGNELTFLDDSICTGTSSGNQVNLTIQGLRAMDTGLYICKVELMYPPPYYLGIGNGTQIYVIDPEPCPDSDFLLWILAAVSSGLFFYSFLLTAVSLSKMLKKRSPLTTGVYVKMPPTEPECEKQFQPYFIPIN
Method: CTLA-4 effector cells were incubated with aAPC/Raji Cells in the absence or presence of increasing concentrations of anti-CTLA-4 antibody (positive control), RLS-0122, RLS-0150, RLS-0154, RLS-0164 and RLS-0168 and RLS-0088 (negative control). Luminescence was detected in luminometer plate reader. The drop-off in signal with the test peptides at high concentrations is due to cell death as a result of peptide buffer effects on the cells.
To assess if PIC1 peptides could block CTLA-4 inhibitory activity in a cell-based assay, select peptides were screened in the CTLA-4 Blockade Bioassay (Promega). This bioluminescent cell-based assay can be used to measure the potency and stability of molecules targeting CTLA-4 and consists of two genetically engineered cell lines: CTLA-4 effector cells: Jurkat T cells expressing human CTLA-4 and a luciferase reporter driven by a native promoter which responds to TCR/CD28 activation and aAPC/Raji Cells: Raji cells expressing an engineered cell surface protein designed to activate cognate TCRs in an antigen-independent manner and endogenously expressing CTLA-4 ligands CD80 and CD86. When the two cell types are co-cultured, CTLA-4 competes with CD28 for their shared ligands, CD80 and CD86 and thus inhibits CD28 pathway activation and promoter-mediated luminescence. Addition of a molecule that blocks the interaction of CTLA-4 with its ligands CD80 and CD86 results in promoter-mediated luminescence.

VEGF = biological target: T5, VEGF (Homo sapiens, UniProt P15692); assay: VEGF Bioassay (Promega), VEGF signaling via VEGFR-2 (KDR); format: cell-based
T5 construct: Promega (bioassay)
T5 sequence (P15692 27-191 isoform P15692-4): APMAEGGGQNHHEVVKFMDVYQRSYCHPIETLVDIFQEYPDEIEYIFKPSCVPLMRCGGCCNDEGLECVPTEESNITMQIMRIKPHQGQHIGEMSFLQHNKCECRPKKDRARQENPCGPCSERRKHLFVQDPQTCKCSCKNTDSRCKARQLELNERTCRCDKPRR
From the text: Luminescence was detected in luminometer plate reader.
Angiogenesis, or the formation of new blood vessels from the established vasculature, is an essential element in tumor growth and metastasis formation. Inhibiting tumor angiogenesis is considered a major therapeutic strategy in oncology. […] The bioluminescent signal is detected in a luminometer.

[4] = system: purified human Pan T-cells; assay: T-cell exhaustion protocol (repeated CD3/CD28 Dynabead stimulation); format: cell-based; conditions: ELISA, listed as RLS-0154
Method: Purified human pan-T-cells were subject to stimulation with Dynabeads every 48 hours over the period of 8 days with cells also receiving PIC1 peptides (2 mg/ml) at each stimulation. Cells not receiving Dynabeads were run in parallel to assess background levels of Caspase 3/7 signal. At the eighth day, cells were harvested, and the levels of Caspase 3/7 determined by ELISA.
Purified human pan-T-cells were subject to stimulation with Dynabeads every 48 hours over the period of 8 days with cells also receiving PIC1 peptides (2 mg/ml) at each stimulation. Cell supernatants were collected at each stimulation and levels of IL-2 and IFN-gamma assayed by ELISA.
T-cell exhaustion is a form of T-cell dysfunction that occurs in cancer. It is generally defined by poor effector function, reduction in cytokine release (e.g., IL-2, TNF-alpha, IFN-gamma), sustained expression of inhibitory receptors (e.g., PD-1, LAG-3, CD244, CD160) with the progressive loss of effector function due to overstimulation. Exhaustion can prevent optimal control of tumor growth. Exhausted T cells are prevalent in the tumor microenvironment (TME) and can lead to T-cell apoptosis. T-cell exhaustion is reversible and pharmaceutical inhibition of T-cell exhaustion has been considered a promising strategy by many cancer researchers. To ascertain if PIC1 peptides could reverse T-cell exhaustion and increase T cell viability and effector function, a T-cell exhaustion protocol was developed. To induce T-cell exhaustion, purified human Pan T-cells were stimulated with T-Activator CD3/CD28 Dynabeads and cells were washed and re-stimulated every 48 hours. PIC1 peptides were added to the cells after each stimulation with Dynabeads. After three to four stimulations, cells were harvested for readouts which consisted of assessing T-cell apoptosis by measuring Caspase 3/7 levels and production of cytokines IL-2 and IFN-gamma, which are indicative of T-cell functionality. […] To further evaluate if PIC1 peptides could restore T-cell functionality in cells that have undergone the exhaustion protocol, the inventors next assessed production of cytokines IL-2 and IFN-gamma. Supernatants from the cells after each stimulation was collected and the cytokines measured by ELISA. […] The lower level of IFN-gamma signal was consistently seen in this assay.

[5] = peptides 2 mg/ml, stimulation 2

T2 sequence (P02745 23-245): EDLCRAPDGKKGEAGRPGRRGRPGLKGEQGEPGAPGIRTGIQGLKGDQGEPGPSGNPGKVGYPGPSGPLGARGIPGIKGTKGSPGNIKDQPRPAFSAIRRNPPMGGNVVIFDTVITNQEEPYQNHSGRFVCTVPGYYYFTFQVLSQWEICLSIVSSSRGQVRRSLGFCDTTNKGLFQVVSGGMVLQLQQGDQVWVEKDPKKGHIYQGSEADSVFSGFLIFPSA
T2 sequence (P02746 28-253): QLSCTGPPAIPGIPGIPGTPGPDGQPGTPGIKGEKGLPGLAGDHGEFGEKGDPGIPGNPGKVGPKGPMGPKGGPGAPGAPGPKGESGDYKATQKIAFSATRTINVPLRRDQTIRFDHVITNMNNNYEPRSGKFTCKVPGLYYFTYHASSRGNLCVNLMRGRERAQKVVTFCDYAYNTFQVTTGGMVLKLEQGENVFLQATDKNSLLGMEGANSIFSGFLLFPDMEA
T2 sequence (P02747 29-245): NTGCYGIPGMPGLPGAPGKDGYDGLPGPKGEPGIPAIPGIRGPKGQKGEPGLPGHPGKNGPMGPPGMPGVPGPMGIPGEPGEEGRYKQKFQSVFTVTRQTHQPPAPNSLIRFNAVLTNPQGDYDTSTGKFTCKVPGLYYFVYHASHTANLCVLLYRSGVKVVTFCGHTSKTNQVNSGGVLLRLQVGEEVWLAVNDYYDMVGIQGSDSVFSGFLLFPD
T1 sequence (P05164 279-745 limits assumed): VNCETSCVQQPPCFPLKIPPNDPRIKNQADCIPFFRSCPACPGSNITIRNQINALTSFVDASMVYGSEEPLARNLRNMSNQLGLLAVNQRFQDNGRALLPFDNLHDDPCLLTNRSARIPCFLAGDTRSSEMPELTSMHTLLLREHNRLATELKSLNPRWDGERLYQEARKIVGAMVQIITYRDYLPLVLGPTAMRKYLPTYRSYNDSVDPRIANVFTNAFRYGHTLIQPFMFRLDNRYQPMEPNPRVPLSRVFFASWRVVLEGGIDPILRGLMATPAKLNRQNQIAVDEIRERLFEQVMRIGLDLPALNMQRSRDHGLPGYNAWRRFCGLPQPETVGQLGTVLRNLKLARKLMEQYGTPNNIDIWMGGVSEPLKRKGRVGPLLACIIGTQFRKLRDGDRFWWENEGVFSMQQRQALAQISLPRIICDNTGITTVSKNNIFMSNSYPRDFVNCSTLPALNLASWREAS
T1 sequence (P05164 165-273 limits assumed): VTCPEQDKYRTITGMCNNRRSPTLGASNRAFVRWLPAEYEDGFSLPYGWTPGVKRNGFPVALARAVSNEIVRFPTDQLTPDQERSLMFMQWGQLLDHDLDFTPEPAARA
T3 sequence (Q9NZQ7 19-238 limits assumed): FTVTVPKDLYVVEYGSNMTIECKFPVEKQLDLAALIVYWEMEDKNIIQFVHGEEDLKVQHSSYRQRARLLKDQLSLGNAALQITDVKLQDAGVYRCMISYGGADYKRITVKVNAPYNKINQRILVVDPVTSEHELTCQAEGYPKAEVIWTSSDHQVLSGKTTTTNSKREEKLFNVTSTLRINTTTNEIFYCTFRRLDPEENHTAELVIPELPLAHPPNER

Substance: IS5LILS5PI(Sar)CQERAA (I[S5]LIL[S5]PI[Sar]CQERAA; staple 2-6; not fully specified; printed as IS5LILS5PI(Sar)CQERAA) [PA-0152]
- inhibition of MPO activity (half-maximal values), in words (MPO): decreased MPO inhibition
- binding to C1q (binding curves, half-maximal binding), in words (C1q): did not titrate

Substance: IALILEPICCQERAA-PEG24 (C-terminal PEG24) [PA-0071, PIC1 peptide with C-terminal monodisperse 24-mer PEGylated moiety]
- inhibition of binding of PD-1 to PD-L1, in words (PD-1 binding to PD-L1): did not inhibit

Substance: IAdLILEP(Sar)CS5QERS5A (H-IA[dL]ILEP[Sar]C[S5]QER[S5]A-OH; staple 10-14; not fully specified) [PA-0142]
- binding to C1q (binding curves, half-maximal binding), in words (C1q): did not bind C1q
- total antioxidant capacity, in words [1]: decreased activity compared to the parent peptide
- inhibition of ABO incompatible hemolysis (complement inhibition), in words [2]: similar

Substance: IALILEPI(Sar)CQERAA (IALILEPIXCQERAA; sarcosine at position 9; MOD_RES (9)..(9) Sarcosine) [PA-0089, parent peptide, sarcosine at position 9 of PIC1]
- solubility in water [3]: water soluble without PEGylation

Substance: IALILES5I(Sar)CS5ERAA (IALILE[S5]I[Sar]C[S5]ERAA; staple 7-11; not fully specified; printed as IALILES5I(Sar)CS5ERAA) [PA-0154]
- inhibition of MPO activity (half-maximal values), in words (MPO): decreased MPO inhibition
- inhibition of CTLA-4 mediated cell signaling (increase in luminescence), in words (CTLA-4): showed inhibitory activity; also recorded: able to inhibit CTLA-4 mediated cell signaling
- inhibition of VEGF signaling via VEGFR-2 (luminescence), in words (VEGF): dose-dependently reduced luminescence
- Caspase 3/7 levels, in words ([4]; peptides 2 mg/ml at each stimulation, day 8): increase in Caspase 3/7 levels; also recorded: did not display reduction of Caspase levels
- IFN-gamma levels in cell supernatants, in words [4, 5]: not and increased levels
- IL-2 levels in cell supernatants, in words [4, 5]: detectable IL-2 at stimulation 2; also recorded: increased levels
